Measured values: publication PMC12309602, “NMR-guided identification of CYP11A1–Adrenodoxin interactions that differentially govern cholesterol and vitamin D3 metabolism” (The Journal of Biological Chemistry, 2025)
Residue numbers refer to the chain shown, from its start.

Legend:
[1] = target: T1, bovine CYP11A1, wild type, mature, residues 41-520 (bovine, UniProt P00189 41-520); test: cell-based or functional assay
T1 sequence (looked up): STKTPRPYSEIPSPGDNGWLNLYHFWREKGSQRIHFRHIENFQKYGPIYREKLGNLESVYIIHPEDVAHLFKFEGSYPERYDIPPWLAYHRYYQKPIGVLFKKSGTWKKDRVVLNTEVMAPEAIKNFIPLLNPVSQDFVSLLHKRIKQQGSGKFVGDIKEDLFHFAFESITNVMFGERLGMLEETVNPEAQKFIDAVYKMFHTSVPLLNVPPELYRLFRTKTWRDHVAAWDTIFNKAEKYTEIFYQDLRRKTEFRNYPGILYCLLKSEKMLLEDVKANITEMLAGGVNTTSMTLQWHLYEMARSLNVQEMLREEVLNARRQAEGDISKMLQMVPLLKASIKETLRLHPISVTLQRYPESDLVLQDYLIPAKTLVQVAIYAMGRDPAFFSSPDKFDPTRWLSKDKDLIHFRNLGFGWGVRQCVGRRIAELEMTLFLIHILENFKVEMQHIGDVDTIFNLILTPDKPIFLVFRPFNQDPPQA

[2] = target: T1, bovine CYP11A1, wild type, mature, …; test: NMR titration; 2D 1H,15N-HSQC of 50 uM 15N-Adx with 0.25 to 1.0 equivalents of CYP11A1; 50 mM potassium phosphate, 50 mM NaCl, pH 7.2; peak intensity ratios; some samples with cholesterol or vitamin D3 in 25% HPCD added to the pre-formed complex; settings: both partners purified

B1: bovine Adrenodoxin M77L (natural protein)
chain: SSSEDKITVHFINRDGETLTTKGKIGDSLLDVVVQNNLDIDGFGACEGTLACSTCHLIFEQHIFEKLEAITDEENDLLDLAYGLTDRSRLGCQICLTKAMDNMTVRVPDAVSDARESIDMGMNSSKIE
modifications: uniform 15N labelling in the NMR samples
For B1, the “reconstituted CYP11A1 assay, side chain cleavage of cholesterol: pregnenolone produced with Adx M77L compared to WT Adx, at 45 min” value [1] was 0.6 fold (decrease relative to WT Adx) and the “reconstituted CYP11A1 assay: vitamin D3 depletion with Adx M77L compared to WT Adx, at 45 min” value [1] was 0.7 fold (decrease relative to WT Adx).

B2: bovine Adrenodoxin M77S (natural protein)
chain: B1 chain with L77S
modifications: uniform 15N labelling in the NMR samples
B2 was tested, and the “reconstituted CYP11A1 assay: vitamin D3 metabolism with Adx M77S compared to WT Adx, at 45 min” value [1] was ~0.3 fold (increase relative to WT Adx).

B3: bovine Adrenodoxin, wild type (15N-labeled for NMR) (natural protein)
chain: B1 chain with L77M
modifications: uniform 15N labelling in the NMR samples
notes: Adrenodoxin (Adx), bovine; Carries a 2Fe-2S cluster; also called Adx; WT Adx; source: Ni-NTA, then size exclusion chromatography (Superdex 75)
B3: binds [2].
